Results on one molecule are retold here after PMC5758891.

In the data set the target is T1, Lhr-(1-856) (UniProt A0QT91 1-856).
T1 sequence: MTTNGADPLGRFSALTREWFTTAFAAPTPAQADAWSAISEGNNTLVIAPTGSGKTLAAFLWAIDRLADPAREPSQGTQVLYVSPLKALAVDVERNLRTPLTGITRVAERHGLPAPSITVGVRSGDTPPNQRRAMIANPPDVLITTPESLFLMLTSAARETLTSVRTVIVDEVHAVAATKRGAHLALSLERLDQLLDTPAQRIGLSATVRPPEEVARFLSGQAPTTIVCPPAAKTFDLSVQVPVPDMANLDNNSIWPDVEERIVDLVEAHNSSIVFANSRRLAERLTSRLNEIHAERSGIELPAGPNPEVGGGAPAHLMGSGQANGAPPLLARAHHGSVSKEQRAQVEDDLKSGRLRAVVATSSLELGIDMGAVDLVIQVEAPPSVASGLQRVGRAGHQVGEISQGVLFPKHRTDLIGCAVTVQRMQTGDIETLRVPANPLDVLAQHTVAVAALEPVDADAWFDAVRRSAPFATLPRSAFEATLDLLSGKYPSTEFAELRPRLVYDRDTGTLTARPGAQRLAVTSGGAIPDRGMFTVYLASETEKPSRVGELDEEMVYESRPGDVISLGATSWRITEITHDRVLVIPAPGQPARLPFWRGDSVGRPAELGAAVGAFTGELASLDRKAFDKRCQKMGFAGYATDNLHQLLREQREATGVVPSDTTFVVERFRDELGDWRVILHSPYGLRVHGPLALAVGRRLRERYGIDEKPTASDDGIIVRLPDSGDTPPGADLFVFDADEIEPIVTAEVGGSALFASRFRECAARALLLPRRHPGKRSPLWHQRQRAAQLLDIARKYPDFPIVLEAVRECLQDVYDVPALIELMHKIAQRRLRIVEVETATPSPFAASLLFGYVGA
Put plainly: X-ray crystallography.

Turning to GACCTGCTGCGGATTG (ssDNA) [16-mer ssDNA], the binding result is recorded as “binds”.
